Source: US20140087995A1 (published 2014)
Numbered stars: 1 amine (or outer) side, 2 acyl side, 3 side chain; on linkers, the order of the positions; unused ones are H or OH. Bridge positions count the residues as written; N and C are the ends. Side chains are listed from the residue outwards. Ends that are not written are not given here. * marks the point of attachment. C20 diacid = O=C(O)CCCCCCCCCCCCCCCCCCC(=O)*; γGlu = O=C(O)[C@H](CCC(=O)[*:2])N[*:1]

T1: rat calcitonin receptor (rat, UniProt P32214 25-516)
T1 construct: whole, on cells; Membranes prepared from transiently transfected BHK tk'ts 13 cells (Assay VIII); also called rCTR; rCT
T1 sequence (looked up): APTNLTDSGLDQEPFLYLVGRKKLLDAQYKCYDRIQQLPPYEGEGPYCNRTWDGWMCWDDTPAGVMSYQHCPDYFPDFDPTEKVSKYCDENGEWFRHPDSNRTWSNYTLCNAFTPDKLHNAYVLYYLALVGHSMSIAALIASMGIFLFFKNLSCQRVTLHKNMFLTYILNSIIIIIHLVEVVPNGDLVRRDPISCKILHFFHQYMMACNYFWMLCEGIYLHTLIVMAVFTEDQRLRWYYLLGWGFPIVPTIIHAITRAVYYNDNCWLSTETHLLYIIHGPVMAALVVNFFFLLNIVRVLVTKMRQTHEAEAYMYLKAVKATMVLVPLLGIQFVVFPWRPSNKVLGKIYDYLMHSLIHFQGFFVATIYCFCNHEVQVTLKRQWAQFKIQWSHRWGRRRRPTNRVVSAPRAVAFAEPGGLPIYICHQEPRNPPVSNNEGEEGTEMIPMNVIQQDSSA

T2: human calcitonin receptor (human, UniProt P30988 25-474)
T2 construct: whole, on cells; Membranes prepared from a stably transfected BHK cell line (Assay VII); also called hCTR; hCT
T2 sequence (looked up): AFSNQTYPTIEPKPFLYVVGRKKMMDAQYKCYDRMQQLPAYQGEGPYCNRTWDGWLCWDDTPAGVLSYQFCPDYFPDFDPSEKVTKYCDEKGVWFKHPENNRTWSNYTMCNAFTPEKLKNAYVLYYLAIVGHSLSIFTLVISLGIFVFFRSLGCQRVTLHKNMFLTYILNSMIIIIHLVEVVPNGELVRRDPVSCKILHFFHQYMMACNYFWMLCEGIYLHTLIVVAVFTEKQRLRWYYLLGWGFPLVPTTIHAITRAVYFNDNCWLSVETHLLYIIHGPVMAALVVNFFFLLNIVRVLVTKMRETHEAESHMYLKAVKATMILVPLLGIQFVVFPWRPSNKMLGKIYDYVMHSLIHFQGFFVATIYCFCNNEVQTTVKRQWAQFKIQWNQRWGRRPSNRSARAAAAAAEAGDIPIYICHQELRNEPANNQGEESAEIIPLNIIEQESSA

T3: rat amylin receptor (rat calcitonin receptor + rat RAMP 3) (rat, UniProt P32214 25-516; Q9JJ73 23-147)
T3 construct: whole, on cells; Membranes prepared from transiently transfected BHK tk'ts 13 cells (Assay VI); also called rAmylin-R; rAmylin
T3 sequence (looked up) 1: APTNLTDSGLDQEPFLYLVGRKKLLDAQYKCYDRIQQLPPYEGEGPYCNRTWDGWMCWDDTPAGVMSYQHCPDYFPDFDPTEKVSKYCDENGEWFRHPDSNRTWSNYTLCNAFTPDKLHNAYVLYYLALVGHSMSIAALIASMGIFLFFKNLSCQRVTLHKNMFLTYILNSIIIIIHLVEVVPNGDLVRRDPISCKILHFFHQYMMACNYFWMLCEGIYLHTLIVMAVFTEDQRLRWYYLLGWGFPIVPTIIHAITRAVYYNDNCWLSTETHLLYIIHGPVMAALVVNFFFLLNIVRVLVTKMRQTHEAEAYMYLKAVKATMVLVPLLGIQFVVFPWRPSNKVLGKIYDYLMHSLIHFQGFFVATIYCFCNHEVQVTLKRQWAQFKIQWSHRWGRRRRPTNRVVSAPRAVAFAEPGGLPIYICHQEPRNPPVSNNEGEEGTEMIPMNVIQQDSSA
T3 sequence (looked up) 2: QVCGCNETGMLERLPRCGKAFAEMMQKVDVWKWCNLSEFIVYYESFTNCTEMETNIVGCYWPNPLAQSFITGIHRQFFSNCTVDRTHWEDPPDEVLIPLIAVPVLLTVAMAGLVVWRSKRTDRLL


Tests used:
rat calcitonin receptor [1] = target: T1, rat calcitonin receptor; experiment: ratio of binding IC50s: rat calcitonin receptor / rat amylin receptor (reference)
rat calcitonin receptor [2] = target: T1, rat calcitonin receptor; experiment: SPA competition vs 125I-calcitonin, membranes of BHK cells with rat calcitonin receptor (Assay VIII)
[3] = target: T2, human calcitonin receptor; experiment: ratio of binding IC50s: human calcitonin receptor / human amylin receptor (reference)
Outline: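 IC₅₀ values were derived by one-site competition analysis of SPA counts. Cell membranes (35 ng/μL) with SPA beads were incubated with test compounds for 120 min at 25° C in Hepes buffer, pH 7.4, containing CaCl2, MgCl₂, OA and Tween20.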

[4] = target: T3, rat amylin receptor (rat calcitonin …); experiment: SPA competition vs 125I-rat amylin, membranes of BHK cells with rat calcitonin receptor + rat RAMP3 (Assay VI)

Binder	Ratio rCT/rAmylin binding (rat calcitonin receptor [1])	IC50 (rat calcitonin receptor [2])	Ratio hCT/hAmylin binding [3]	IC50 [4]
K([γGlu-C20 diacid])CNTATCATQRLANFLRHSSPNFGAIPSSTNVGHNTY-NH2 (disulfide 2-7; N-terminus assumed; SMILES CC[C@H](C)[C@H](NC(=O)[C@H](C)NC(=O)CNC(=O)[C@H](Cc1ccccc1)NC(=O)[C@H](CC(N)=O)NC(=O)[C@@H]1CCCN1C(=O)[C@H](CO)NC(=O)[C@H](CO)NC(=O)[C@H](Cc1c[nH]cn1)NC(=O)[C@H](CCCNC(=N)N)NC(=O)[C@H](CC(C)C)NC(=O)[C@H](Cc1ccccc1)NC(=O)[C@H](CC(N)=O)NC(=O)[C@H](C)NC(=O)[C@H](CC(C)C)NC(=O)[C@H](CCCNC(=N)N)NC(=O)[C@H](CCC(N)=O)NC(=O)[C@@H](NC(=O)[C@H](C)NC(=O)[C@@H]1CSSC[C@H](NC(=O)[C@@H](N)CCCCNC(=O)CC[C@H](NC(=O)CCCCCCCCCCCCCCCCCCC(=O)O)C(=O)O)C(=O)N[C@@H](CC(N)=O)C(=O)N[C@@H]([C@@H](C)O)C(=O)N[C@@H](C)C(=O)N[C@@H]([C@@H](C)O)C(=O)N1)[C@@H](C)O)C(=O)N1CCC[C@H]1C(=O)N[C@@H](CO)C(=O)N[C@@H](CO)C(=O)N[C@H](C(=O)N[C@@H](CC(N)=O)C(=O)N[C@H](C(=O)NCC(=O)N[C@@H](Cc1c[nH]cn1)C(=O)N[C@@H](CC(N)=O)C(=O)N[C@H](C(=O)N[C@@H](Cc1ccc(O)cc1)C(N)=O)[C@@H](C)O)C(C)C)[C@@H](C)O, Analogue of human amylin; also called compound 77) [N^ε1-[(4S)-4-carboxy-4-(19-carboxynonadecanoylamino)butanoyl]-[Arg17,Pro21,Pro27,His34]-h-amylin]	137	205 nM	118	1.5 nM
K([γGlu-C20 diacid])CNTATCATQRLAHFLRHSSPNFGAIPSSTNVGRNTY-NH2 (disulfide 2-7; N-terminus assumed; SMILES CC[C@H](C)[C@H](NC(=O)[C@H](C)NC(=O)CNC(=O)[C@H](Cc1ccccc1)NC(=O)[C@H](CC(N)=O)NC(=O)[C@@H]1CCCN1C(=O)[C@H](CO)NC(=O)[C@H](CO)NC(=O)[C@H](Cc1c[nH]cn1)NC(=O)[C@H](CCCNC(=N)N)NC(=O)[C@H](CC(C)C)NC(=O)[C@H](Cc1ccccc1)NC(=O)[C@H](Cc1c[nH]cn1)NC(=O)[C@H](C)NC(=O)[C@H](CC(C)C)NC(=O)[C@H](CCCNC(=N)N)NC(=O)[C@H](CCC(N)=O)NC(=O)[C@@H](NC(=O)[C@H](C)NC(=O)[C@@H]1CSSC[C@H](NC(=O)[C@@H](N)CCCCNC(=O)CC[C@H](NC(=O)CCCCCCCCCCCCCCCCCCC(=O)O)C(=O)O)C(=O)N[C@@H](CC(N)=O)C(=O)N[C@@H]([C@@H](C)O)C(=O)N[C@@H](C)C(=O)N[C@@H]([C@@H](C)O)C(=O)N1)[C@@H](C)O)C(=O)N1CCC[C@H]1C(=O)N[C@@H](CO)C(=O)N[C@@H](CO)C(=O)N[C@H](C(=O)N[C@@H](CC(N)=O)C(=O)N[C@H](C(=O)NCC(=O)N[C@@H](CCCNC(=N)N)C(=O)N[C@@H](CC(N)=O)C(=O)N[C@H](C(=O)N[C@@H](Cc1ccc(O)cc1)C(N)=O)[C@@H](C)O)C(C)C)[C@@H](C)O, Analogue of human amylin; also called compound 85)	46.5	146 nM	91.8	3.14 nM
K([γGlu-C20 diacid])CNTATCATQRLANFLRHSSPNFGAIPSSTNVGSHTY-NH2 (disulfide 2-7; N-terminus assumed; SMILES CC[C@H](C)[C@H](NC(=O)[C@H](C)NC(=O)CNC(=O)[C@H](Cc1ccccc1)NC(=O)[C@H](CC(N)=O)NC(=O)[C@@H]1CCCN1C(=O)[C@H](CO)NC(=O)[C@H](CO)NC(=O)[C@H](Cc1c[nH]cn1)NC(=O)[C@H](CCCNC(=N)N)NC(=O)[C@H](CC(C)C)NC(=O)[C@H](Cc1ccccc1)NC(=O)[C@H](CC(N)=O)NC(=O)[C@H](C)NC(=O)[C@H](CC(C)C)NC(=O)[C@H](CCCNC(=N)N)NC(=O)[C@H](CCC(N)=O)NC(=O)[C@@H](NC(=O)[C@H](C)NC(=O)[C@@H]1CSSC[C@H](NC(=O)[C@@H](N)CCCCNC(=O)CC[C@H](NC(=O)CCCCCCCCCCCCCCCCCCC(=O)O)C(=O)O)C(=O)N[C@@H](CC(N)=O)C(=O)N[C@@H]([C@@H](C)O)C(=O)N[C@@H](C)C(=O)N[C@@H]([C@@H](C)O)C(=O)N1)[C@@H](C)O)C(=O)N1CCC[C@H]1C(=O)N[C@@H](CO)C(=O)N[C@@H](CO)C(=O)N[C@H](C(=O)N[C@@H](CC(N)=O)C(=O)N[C@H](C(=O)NCC(=O)N[C@@H](CO)C(=O)N[C@@H](Cc1c[nH]cn1)C(=O)N[C@H](C(=O)N[C@@H](Cc1ccc(O)cc1)C(N)=O)[C@@H](C)O)C(C)C)[C@@H](C)O, Analogue of human amylin; also called compound 60) [N^ε1-[(4S)-4-carboxy-4-(19-carboxynonadecanoylamino)butanoyl]-[Arg17,Pro21,Pro27,His35]-h-amylin]	122	26.3 nM	45.2	0.215 nM
K([γGlu-C20 diacid])CNTATCATQRLAHFLRHSSPNFGAIPSSTNVGHNTY-NH2 (disulfide 2-7; N-terminus assumed; SMILES CC[C@H](C)[C@H](NC(=O)[C@H](C)NC(=O)CNC(=O)[C@H](Cc1ccccc1)NC(=O)[C@H](CC(N)=O)NC(=O)[C@@H]1CCCN1C(=O)[C@H](CO)NC(=O)[C@H](CO)NC(=O)[C@H](Cc1c[nH]cn1)NC(=O)[C@H](CCCNC(=N)N)NC(=O)[C@H](CC(C)C)NC(=O)[C@H](Cc1ccccc1)NC(=O)[C@H](Cc1c[nH]cn1)NC(=O)[C@H](C)NC(=O)[C@H](CC(C)C)NC(=O)[C@H](CCCNC(=N)N)NC(=O)[C@H](CCC(N)=O)NC(=O)[C@@H](NC(=O)[C@H](C)NC(=O)[C@@H]1CSSC[C@H](NC(=O)[C@@H](N)CCCCNC(=O)CC[C@H](NC(=O)CCCCCCCCCCCCCCCCCCC(=O)O)C(=O)O)C(=O)N[C@@H](CC(N)=O)C(=O)N[C@@H]([C@@H](C)O)C(=O)N[C@@H](C)C(=O)N[C@@H]([C@@H](C)O)C(=O)N1)[C@@H](C)O)C(=O)N1CCC[C@H]1C(=O)N[C@@H](CO)C(=O)N[C@@H](CO)C(=O)N[C@H](C(=O)N[C@@H](CC(N)=O)C(=O)N[C@H](C(=O)NCC(=O)N[C@@H](Cc1c[nH]cn1)C(=O)N[C@@H](CC(N)=O)C(=O)N[C@H](C(=O)N[C@@H](Cc1ccc(O)cc1)C(N)=O)[C@@H](C)O)C(C)C)[C@@H](C)O, Analogue of human amylin; also called compound 81)	42.9	61.1 nM	87.2	1.42 nM
